Paper doi:10.1101/2022.08.30.505862
Residue numbers refer to the chain shown, from its start. Read-outs that look alike come from different tables or passages of the source.

Assays:
RBM39 RRM2 F259A = molecular target: T1, RBM39 RRM2 F259A (UniProt Q14498 247-332, F259A); assay: ITC
T1 sequence: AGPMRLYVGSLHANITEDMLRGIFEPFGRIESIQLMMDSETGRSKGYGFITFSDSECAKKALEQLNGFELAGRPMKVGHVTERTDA

RBM39 RRM2 [1] = molecular target: T2, RBM39 RRM2 (UniProt Q14498 247-332); assay: ITC
T2 sequence: T1 sequence with A13F

RBM39 RRM2 [2] = molecular target: T2, RBM39 RRM2; assay: NMR CSP
RBM39 RRM12 = molecular target: T3, RBM39 RRM12 (UniProt Q14498 143-332); assay: NMR CSP
T3 sequence: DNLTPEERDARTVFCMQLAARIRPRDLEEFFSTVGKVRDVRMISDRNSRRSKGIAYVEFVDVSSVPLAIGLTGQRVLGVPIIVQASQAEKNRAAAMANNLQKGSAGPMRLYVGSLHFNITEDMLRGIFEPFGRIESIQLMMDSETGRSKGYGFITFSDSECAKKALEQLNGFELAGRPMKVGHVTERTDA

RBM39 RRM1 = molecular target: T4, RBM39 RRM1 (UniProt Q14498 142-237); assay: NMR solution structure
T4 sequence: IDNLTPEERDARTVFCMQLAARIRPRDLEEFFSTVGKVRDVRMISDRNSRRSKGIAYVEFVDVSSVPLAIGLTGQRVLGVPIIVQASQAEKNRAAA

GB1-RBM39-RRM12 = molecular target: T5, GB1-RBM39-RRM12 (UniProt Q14498 143-332); assay: NMR CSP
T5 sequence: T3 sequence

RBM39 RRM2 [3] = molecular target: T2, RBM39 RRM2; assay: NMR CSP; remark: listed apart in the source

With AGCUUUG (ssRNA) [AGCUUUG ssRNA] the binding signal (RBM39 RRM2 F259A) was 4 fold lower affinity than WT and the Kd (RBM39 RRM2 [1]) was 9 ± 2 µM.

ACCUUUG (ssRNA) [BS2 (ACCUUUG)]: binds (RBM39 RRM2 [2]).

CUCUUUG (ssRNA) [BS1 (CUCUUUG)]: binds (RBM39 RRM2 [2]).

GGGAUUUCCCCAAAUGUGGGAAACUCCC (structured_RNA) [U1 snRNA SL3]: binds (RBM39 RRM12); binds (RBM39 RRM1).

GGACUGUCCACAAGACAGUCG (structured_RNA) [RBMY stem-loop aptamer]: binds (GB1-RBM39-RRM12).

CCUCCCA (ssRNA) [mutBS1 (CCUCCCA)]: no binding (RBM39 RRM2 [3]).

GGGGACUGCGUUCGCGCUUUCCCC (structured_RNA) [U1 snRNA SL4]: binds (GB1-RBM39-RRM12).
